Starred links: 1 amine or outer side, 2 acyl side, 3 side chain; linkers in the order of their positions; H or OH if unused. Non-standard residues stand in square brackets, D forms with d. Groups on a side chain read outwards from the residue. No end group written: not given here. *: point of attachment. C20 diacid = O=C(O)CCCCCCCCCCCCCCCCCCC(=O)*; γGlu = O=C(O)[C@H](CCC(=O)[*:2])N[*:1]; Desaminohistidyl = O=C(CCc1c[nH]cn1)*; Trx = NC[C@H]1CC[C@H](C(=O)O)CC1; AEEA = NCCOCCOCC(=O)O; Aib = CC(C)(N)C(=O)O
Experiments:
[1] = molecular target: T1, human GLP-1 receptor (human, UniProt P43220 24-463); assay: SPA competition, displacement of 125I-GLP-1(7-36)NH2 from BHK membranes with human GLP-1 receptor; high HSA (2.0%)
T1 construct: whole, on cells
Protocol: (§1) For the receptor binding assay in the presence of low HSA (0.005%) 50 μl of the assay buffer was added to each well of an assay plate. […] For the receptor binding assay in the presence of high HSA (2%) 50 μl of the 8% albumin stock was added to each well of an assay plate. […] Cell membrane aliquots were thawed and diluted to their working concentration. Fifty μl were added to each well in the assay plate. […] WGA SPA beads were suspended in assay buffer at 20 mg/ml. The suspension was diluted to 10 mg/ml in assay buffer just prior to addition to the assay plate. Fifty μl were added to each well in the assay plate. […] A 25 μl aliquot was reserved for measuring total counts/well. […] The assay plate was incubated for 2 h at 30° C. […] The assay plate was centrifuged for 10 min. […] The assay plate was read in a Packard TopCount NXT instrument.
(§2) The data from the TopCount instrument were transferred to GraphPad Prism software. Individual replicates were analysed using non-linear regression.

[2] = molecular target: T1, human GLP-1 receptor; assay: cell-based or functional assay
[3] = molecular target: T1, human GLP-1 receptor; assay: SPA competition, displacement of 125I-GLP-1(7-36)NH2 from BHK membranes with human GLP-1 receptor; low HSA (max. 0.001%)
Protocol: as §1, §2

| Binder | IC50 [1] | EC50 (pM), in vitro potency, CRE luciferase reporter in BHK cells expressing the human GLP-1 receptor [2] | IC50 [3] |
| --- | --- | --- | --- |
| HXEGTFTSDVSSYLEEQAAREFIAWLVRGRK (not fully specified; Aib at position 8 (GLP-1 numbering); epsilon-amino of Lys37 acylated with branched side chain: Pre-linker Ado; Branched linker eps-Lys(Bis); two Post-linkers Trx-gGlu-2xAdo, each carrying a C20 diacid Protractor, also called Chem. 21; N{Epsilon-37}-acylated [Aib8,Glu22,Arg26,Arg34,Lys37]-GLP-1-(7-37)-peptide) [GLP-1 derivative of Example 1] | 140 nM | 77 pM | – |
| HXEGTFTSDVSSYLEEQAAREFIAWLVRGRK (Aib at position 8 (GLP-1 numbering); epsilon-amino of Lys37 acylated with branched side chain: Pre-linker 3xAdo; Branched linker eps-Lys(Bis); two Post-linkers Trx-gGlu-3xAdo, each carrying a C20 diacid Protractor (the printed name gives (4R) for the gGlu of one arm and (4S) for the other), also called Chem. 42; N{Epsilon-37}-acylated [Aib8,Glu22,Arg26,Arg34,Lys37]-GLP-1-(7-37)-peptide) [GLP-1 derivative of Example 22] | 63 nM | 12 pM | 1.4 nM |
| HXEGTFTSDVSSYLEEQAAREFIAWLVRGRK (not fully specified; Aib at position 8 (GLP-1 numbering); epsilon-amino of Lys37 acylated with branched side chain: Pre-linker 2xAdo; Branched linker eps-Lys(Bis); two Post-linkers Trx-gGlu-2xAdo, each carrying a C20 diacid Protractor, also called Chem. 22; N{Epsilon-37}-acylated [Aib8,Glu22,Arg26,Arg34,Lys37]-GLP-1-(7-37)-peptide) [GLP-1 derivative of Example 2] | 49 nM | 70 pM | 0.56 nM |
| HXEGTFTSDVSSYLEEQAAREFIAWLVRGRK (Aib at position 8 (GLP-1 numbering); epsilon-amino of Lys37 acylated with branched side chain: Pre-linker 8xAdo; Branched linker eps-Lys(Bis); two Post-linkers Trx-gGlu, each carrying a C20 diacid Protractor, also called Chem. 33; N{Epsilon-37}-acylated [Aib8,Glu22,Arg26,Arg34,Lys37]-GLP-1-(7-37)-peptide) [GLP-1 derivative of Example 13] | 32 nM | 47 pM | 0.17 nM |
| HXEGTFTSDVSSYLEEQAAREFIAWLVRGRK (not fully specified; Aib at position 8 (GLP-1 numbering); epsilon-amino of Lys37 acylated with branched side chain: Pre-linker dPEG6; Branched linker eps-Lys(Bis); two Post-linkers Trx-gGlu, each carrying a C20 diacid Protractor, also called Chem. 23; N{Epsilon-37}-acylated [Aib8,Glu22,Arg26,Arg34,Lys37]-GLP-1-(7-37)-peptide) [GLP-1 derivative of Example 3] | 180 nM | 160 pM | – |
| HXEGTFTSDVSSYLEEQAAREFIAWLVRGRK (not fully specified; Aib at position 8 (GLP-1 numbering); epsilon-amino of Lys37 acylated with branched side chain: Pre-linker 4xeps-Lys; Branched linker eps-Lys(Bis); two Post-linkers Trx-gGlu, each carrying a C20 diacid Protractor, also called Chem. 30; N{Epsilon-37}-acylated [Aib8,Glu22,Arg26,Arg34,Lys37]-GLP-1-(7-37)-peptide) [GLP-1 derivative of Example 10] | – | 150 pM | 19 nM |
| HXEGTFTSDVSSYLEEQAAREFIAWLVRGRK (Aib at position 8 (GLP-1 numbering); epsilon-amino of Lys37 acylated with branched side chain: Pre-linker 4xAdo; Branched linker eps-Lys(Bis); two Post-linkers Trx-gGlu, each carrying a C20 diacid Protractor, also called Chem. 28; N{Epsilon-37}-acylated [Aib8,Glu22,Arg26,Arg34,Lys37]-GLP-1-(7-37)-peptide) [GLP-1 derivative of Example 8] | 45 nM | 72 pM | 1.1 nM |
| HXEGTFTSDVSSYLEEQAAREFIAWLVRGRK (not fully specified; Aib at position 8 (GLP-1 numbering); epsilon-amino of Lys37 acylated with branched side chain: Pre-linker 2xeps-Lys; Branched linker eps-Lys(Bis); two Post-linkers Trx-gGlu, each carrying a C20 diacid Protractor, also called Chem. 29; N{Epsilon-37}-acylated [Aib8,Glu22,Arg26,Arg34,Lys37]-GLP-1-(7-37)-peptide) [GLP-1 derivative of Example 9] | 150 nM | 120 pM | 1.8 nM |
| HXEGTFTSDVSSYLEEQAAREFIAWLVRGRK (not fully specified; Aib at position 8 (GLP-1 numbering); epsilon-amino of Lys37 acylated with branched side chain: Pre-linker 4xAdo; Branched linker eps-Lys(Bis); two Post-linkers Trx-gGlu-2xAdo, each carrying a C20 diacid Protractor, also called Chem. 35; N{Epsilon-37}-acylated [Aib8,Glu22,Arg26,Arg34,Lys37]-GLP-1-(7-37)-peptide) [GLP-1 derivative of Example 15] | 48 nM | 48 pM | 0.87 nM |
| HXEGTFTSDVSSYLEEQAAREFIAWLVRGRK (not fully specified; Aib at position 8 (GLP-1 numbering); epsilon-amino of Lys37 acylated with branched side chain: Pre-linker dPEG12; Branched linker eps-Lys(Bis); two Post-linkers Trx-gGlu, each carrying a C20 diacid Protractor, also called Chem. 24; N{Epsilon-37}-acylated [Aib8,Glu22,Arg26,Arg34,Lys37]-GLP-1-(7-37)-peptide) [GLP-1 derivative of Example 4] | 51 nM | 110 pM | 0.78 nM |
| HXEGTFTSDVSSYLEEQAAREFIAWLVRGRK (Aib at position 8 (GLP-1 numbering); epsilon-amino of Lys37 acylated with branched side chain: Pre-linker 6xAdo; Branched linker eps-Lys(Bis); two Post-linkers Trx-gGlu, each carrying a C20 diacid Protractor, also called Chem. 32; N{Epsilon-37}-acylated [Aib8,Glu22,Arg26,Arg34,Lys37]-GLP-1-(7-37)-peptide) [GLP-1 derivative of Example 12] | 17 nM | 57 pM | 0.63 nM |
| HXEGTFTSDVSSYLEEQAAREFIAWLVRGRK (not fully specified; Aib at position 8 (GLP-1 numbering); epsilon-amino of Lys37 acylated with branched side chain: Pre-linker dPEG20; Branched linker eps-Lys(Bis); two Post-linkers Trx-gGlu, each carrying a C20 diacid Protractor, also called Chem. 25; N{Epsilon-37}-acylated [Aib8,Glu22,Arg26,Arg34,Lys37]-GLP-1-(7-37)-peptide) [GLP-1 derivative of Example 5] | 9.7 nM | 53 pM | 0.91 nM |
| HXEGTFTSDVSSYLEEQAAREFIAWLVRGRK (Aib at position 8 (GLP-1 numbering); epsilon-amino of Lys37 acylated with branched side chain: Pre-linker 2xAdo; Branched linker eps-Lys(Bis); two Post-linkers Trx-gGlu, each carrying a C20 diacid Protractor, also called Chem. 31; N{Epsilon-37}-acylated [Aib8,Glu22,Arg26,Arg34,Lys37]-GLP-1-(7-37)-peptide) [GLP-1 derivative of Example 11] | 150 nM | 130 pM | 1.5 nM |
| HXEGTFTSDVSSYLEEQAAREFIAWLVRGRK (not fully specified; Aib at position 8 (GLP-1 numbering); epsilon-amino of Lys37 acylated with branched side chain: Pre-linker 4xAdo; Branched linker eps-Lys(Bis); two Post-linkers Trx-gGlu-Ado, each carrying a C20 diacid Protractor, also called Chem. 41; N{Epsilon-37}-acylated [Aib8,Glu22,Arg26,Arg34,Lys37]-GLP-1-(7-37)-peptide) [GLP-1 derivative of Example 21] | 19 nM | 38 pM | 1.5 nM |
| HXEGTFTSDVSSYLEEQAAREFIAWLVRGRK (not fully specified; Aib at position 8 (GLP-1 numbering); epsilon-amino of Lys37 acylated with branched side chain: Pre-linker 2xAdo; Branched linker eps-Lys(Bis); two Post-linkers Trx-gGlu-4xAdo, each carrying a C20 diacid Protractor, also called Chem. 34; N{Epsilon-37}-acylated [Aib8,Glu22,Arg26,Arg34,Lys37]-GLP-1-(7-37)-peptide) [GLP-1 derivative of Example 14] | 27 nM | 19 pM | 0.42 nM |
| H[Aib]EGTFTSDVSSYLEEQAAREFIAWLVRGKG (not fully specified (residue 30), also called Chem. 38; N{Epsilon-36}-acylated [Aib8,Glu22,Arg26,Arg34,Lys36]-GLP-1-(7-37)-peptide) [GLP-1 derivative of Example 18] | 24 nM | 37 pM | 0.68 nM |
| H[Aib]EGTFTSDVSSYLEEQAAREFIAWLVRKRG (not fully specified (residue 29), also called Chem. 37; N{Epsilon-35}-acylated [Aib8,Glu22,Arg26,Arg34,Lys35]-GLP-1-(7-37)-peptide) [GLP-1 derivative of Example 17] | 77 nM | 20 pM | 0.64 nM |
| H[Aib]EGTFTSDVSSYLEEQAAREFIAWLVRGRGK (not fully specified (residue 32), also called Chem. 39; N{Alpha}([Aib8,Glu22,Arg26,Arg34]-GLP-1-(7-37)-peptidyl)-N{Epsilon}-acylated Lys) [GLP-1 derivative of Example 19] | 34 nM | 71 pM | 0.69 nM |
| [Desaminohistidyl][Aib]EGTFTSDVSSYLEEQAAREFIAWLVRGRGGK([AEEA-AEEA-AEEA-AEEA-Lys-code γGlu-Trx-C20 diacid),(γGlu-Trx-C20 diacid]) (also: branched side chain on Lys39: two identical arms on eps-Lys(Bis), also called Chem. 26; [Imp7,Aib8,Glu22,Arg26,Arg34]-GLP-1-(7-37)-peptidyl-Gly-N{Epsilon}-acylated Lys) [GLP-1 derivative of Example 6] | 140 nM | 150 pM | 1 nM |
| [Desaminohistidyl][Aib]EGTFTSDVSSYLEEQAAREFIAWLVRGRGGK([AEEA-AEEA-Lys-AEEA-AEEA-γGlu-Trx-C20 diacid),(Ado-AEEA-γGlu-Trx-C20 diacid]) (also: branched side chain on Lys39: two identical arms on eps-Lys(Bis), also called Chem. 27; [Imp7,Aib8,Glu22,Arg26,Arg34]-GLP-1-(7-37)-peptidyl-Gly-N{Epsilon}-acylated Lys) [GLP-1 derivative of Example 7] | 54 nM | 79 pM | 0.57 nM |
